Assay results taken from article PMC2173303.

Molecular target: HSF1 (Homo sapiens, UniProt Q00613 1-529)
Assay: EMSA

HSF1, sequence (Q00613 whole entry): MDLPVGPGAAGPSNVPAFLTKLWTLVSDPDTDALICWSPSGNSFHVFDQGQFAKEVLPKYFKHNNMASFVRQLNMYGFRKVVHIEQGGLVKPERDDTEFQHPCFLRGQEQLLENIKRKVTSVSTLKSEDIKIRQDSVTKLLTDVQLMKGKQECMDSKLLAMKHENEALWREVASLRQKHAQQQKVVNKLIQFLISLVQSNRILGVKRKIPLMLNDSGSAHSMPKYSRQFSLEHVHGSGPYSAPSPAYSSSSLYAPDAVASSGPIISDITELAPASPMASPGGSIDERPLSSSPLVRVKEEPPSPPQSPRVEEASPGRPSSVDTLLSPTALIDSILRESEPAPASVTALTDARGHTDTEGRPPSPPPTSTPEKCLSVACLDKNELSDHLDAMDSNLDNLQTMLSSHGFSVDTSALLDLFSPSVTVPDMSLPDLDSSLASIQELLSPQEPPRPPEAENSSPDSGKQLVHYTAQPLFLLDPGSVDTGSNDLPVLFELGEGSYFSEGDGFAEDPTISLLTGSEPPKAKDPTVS

B1: HSE probe (dsDNA)
DNA 1: TCGGCTGGAATATTCCCGACCTGGCAGCCGA
DNA 2: TCGGCTGCCAGGTCGGGAATATTCCAGCCGA
B1: binds.
